{"source": "patent US20030175679A1", "about": "“Methods for cell screening of compounds capable of modulating the activity of ubiquitin-ligase scf complexes and their uses” (priority 1999, published 2003)", "test_system": "Yeast cells", "assay": "Stability of Ha-labeled hybrid proteins expressed from the GAL1 promoter, measured with anti-Ha antibodies", "type": "cell-based, S. cerevisiae", "key": {"[1]": {"details": "in the absence of methionine (-Met)"}, "[2]": {"details": "repressive conditions, in the presence of methionine (+Met)"}}}
{"molecule": "Ha-Met28: full-length Met28 protein with a repetition of 3 hemagglutinin (Ha) antigenic units at its amino-terminal end (protein, UniProt P40573 1-187, looked up, full-length N-terminal 3x HA tag, full-length Met28 protein with a repetition of 3 hemagglutinin (Ha) antigenic units at its amino-terminal end) MSAKQGWEKKSTNIDIASRKGMNVNNLSEHLQNLISSDSELGSRLLSLLLVSSGNAEELISMINNGQDVSQFKKLREPRKGKVAATTAVVVKEEEAPVSTSNELDKIKQERRRKNTEASQRFRIRKKQKNFENMNKLQNLNTQINKLRDRIEQLNKENEFWKAKLNDINEIKSLKLLNDIKRRNMGR", "values": [{"measurement": "half-life of the hybrid protein", "setting": "[1]", "value": "~20", "unit": "min"}, {"measurement": "half-life of the hybrid protein", "setting": "[2]", "value": "do not modify the half-life"}]}
{"molecule": "Ha-Met30: full-length Met30 protein with a repetition of 3 hemagglutinin (Ha) antigenic units at its amino-terminal end (protein, UniProt P39014 1-640, looked up, full-length N-terminal 3x HA tag, full-length Met30 protein with a repetition of 3 hemagglutinin (Ha) antigenic units at its amino-terminal end) MRRERQRMMSFEDKDKDDLDNSNSNNSSEMTDTAMMPPLKRLLITGSSDDLAQGSSGKKKMTMATRSPSSSPDLATNDSGTRVQPLPEYNFTKFCYRHNPDIQFSPTHTACYKQDLKRTQEINANIAKLPLQEQSDIHHIISKYSNSNDKIRKLILDGILSTSCFPQLSYISSLVTHMIKIDFISILPQELSLKILSYLDCQSLCNATRVCRKWQKLADDDRVWYHMCEQHIDRKCPNCGWGLPLLHMKRARIQQNSTGSSSNADIQTQTTRPWKVIYRERFKVESNWRKGHCRIQEFKGHMDGVLTLQFNYRLLFTGSYDSTIGIWDLFTGKLIRRLSGHSDGVKTLYFDDRKLITGSLDKTIRVWNYITGECISTYRGHSDSVLSVDSYQKVIVSGSADKTVKVWHVESRTCYTLRGHTEWVNCVKLHPKSFSCFSCSDDTTIRMWDIRTNSCLKVFRGHVGQVQKIIPLTIKDVENLATDNTSDGSSPQDDPTMTDGADESDTPSNEQETVLDENIPYPTHLLSCGLDNTIKLWDVKTGKCIRTQFGHVEGVWDIAADNFRIISGSHDGSIKVWDLQSGKCMHTFNGRRLQRETQHTQTQSLGDKVAPIACVCIGDSECFSGDEFGCVKMYKFDLND", "values": [{"measurement": "half-life of the hybrid protein", "setting": "[1]", "value": "~20", "unit": "min"}, {"measurement": "half-life of the hybrid protein", "setting": "[2]", "value": "do not modify the half-life"}]}
{"molecule": "Ha-Met4: Met4 protein derivative with three hemagglutinin (Ha) antigenic units at its amino-terminal end, expressed in yeast under the GAL1 promoter (protein, UniProt P32389 1-672, looked up, N-terminal 3x HA tag, Met4 protein derivative with three hemagglutinin (Ha) antigenic units at its amino-terminal end, expressed in yeast under the GAL1 promoter) Transcriptional activator of …: MKQEQSHEGDSYSTEFINLFGKDTATHPSSNNGANNNGMGSTNSLDQFVATASSSSSLVTSSENRRPLIGDVTNRGNTNLYDHAVTPEILLEQLAYVDNFIPSLDNEFSNVDWNVNTTHNNANNNGADTFSSINANPFDLDEQLAIELSAFADDSFIFPDEDKPSNNNNNSNNGNDDHSNHDVLHEDPSTNNRQRNPHFLTQRRNTFLTSQYDQSKSRFSSKNKRNGNNGETNNFGDNMQNNHPFEPNFMGSPSQFPADATNMTSIDHGGFTNVDITSTENNTTGDNGVDALSNLLHRTTHTPNRSSPLSNVTSAQNSSSQQRKHSESKVDSNSDNNSSNKAPNITVPDYSIIPTSVLVTLLPRVNVPNGAYNSLISAGFDNDQIDAIAAIMAYHHQKKIRENNSNNNKNINTNDSQEAPILKNINELLSVLIPPSPAETRGPTTLSTSPSFNEHGVVAEASFLSSILELGIKHPKSNNIHNQRQPSRNDHKISRESDGNNGNDNVHHNNAVIKSSTTRGDEIAKIRSEPTLNASSSDHKENSLKRSHSGDLKNKKVPVDRKYSDNEDDEYDDADLHGFEKKQLIKKELGDDDEDLLIQSKKSHQKKKLKEKELESSIHELTEIAASLQKRIHTLETENKLLKNLVLSSGETEGIKKAESLKKQIFEKVQKE", "values": [{"measurement": "half-life of the hybrid protein", "setting": "[1]", "value": "~20", "unit": "min"}, {"measurement": "half-life of the hybrid protein", "setting": "[2]", "value": "~5", "unit": "min"}]}
